Reference: patent US20220332804A1 (CSL INNOVATION, published 2022)

Assays:
Assay in all cases: SPR, antibody captured, C2 as analyte;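 note: biacore SPR at 37 °C, anti-C2 mAbs captured via goat anti-human IgG on CM5 chips, double-referenced sensorgrams fit to a 1:1 kinetic or steady-state model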
human C2 D561A = target: T1, human C2 D561A (human, UniProt P06681 21-752)
T1 sequence: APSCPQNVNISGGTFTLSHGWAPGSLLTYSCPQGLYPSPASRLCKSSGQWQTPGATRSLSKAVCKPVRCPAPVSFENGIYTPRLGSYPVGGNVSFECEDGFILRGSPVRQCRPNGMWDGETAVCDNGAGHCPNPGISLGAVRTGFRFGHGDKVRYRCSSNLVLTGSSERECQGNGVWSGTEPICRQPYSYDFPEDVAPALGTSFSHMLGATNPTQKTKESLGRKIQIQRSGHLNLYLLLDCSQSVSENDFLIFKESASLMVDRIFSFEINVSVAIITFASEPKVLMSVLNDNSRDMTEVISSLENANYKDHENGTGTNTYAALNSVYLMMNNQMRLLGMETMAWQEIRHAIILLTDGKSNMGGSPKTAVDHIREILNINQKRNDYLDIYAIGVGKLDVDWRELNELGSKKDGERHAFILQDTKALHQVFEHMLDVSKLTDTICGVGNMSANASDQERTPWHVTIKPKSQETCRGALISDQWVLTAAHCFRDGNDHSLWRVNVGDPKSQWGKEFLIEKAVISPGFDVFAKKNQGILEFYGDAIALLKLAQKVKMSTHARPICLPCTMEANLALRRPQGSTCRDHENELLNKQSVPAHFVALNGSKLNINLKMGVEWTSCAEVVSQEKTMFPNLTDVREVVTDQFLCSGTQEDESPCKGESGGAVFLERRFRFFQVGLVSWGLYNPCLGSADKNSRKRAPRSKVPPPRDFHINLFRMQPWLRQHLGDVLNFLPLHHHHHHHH

human C2 W420A = target: T2, human C2 W420A (human, UniProt P06681 21-752)
T2 sequence: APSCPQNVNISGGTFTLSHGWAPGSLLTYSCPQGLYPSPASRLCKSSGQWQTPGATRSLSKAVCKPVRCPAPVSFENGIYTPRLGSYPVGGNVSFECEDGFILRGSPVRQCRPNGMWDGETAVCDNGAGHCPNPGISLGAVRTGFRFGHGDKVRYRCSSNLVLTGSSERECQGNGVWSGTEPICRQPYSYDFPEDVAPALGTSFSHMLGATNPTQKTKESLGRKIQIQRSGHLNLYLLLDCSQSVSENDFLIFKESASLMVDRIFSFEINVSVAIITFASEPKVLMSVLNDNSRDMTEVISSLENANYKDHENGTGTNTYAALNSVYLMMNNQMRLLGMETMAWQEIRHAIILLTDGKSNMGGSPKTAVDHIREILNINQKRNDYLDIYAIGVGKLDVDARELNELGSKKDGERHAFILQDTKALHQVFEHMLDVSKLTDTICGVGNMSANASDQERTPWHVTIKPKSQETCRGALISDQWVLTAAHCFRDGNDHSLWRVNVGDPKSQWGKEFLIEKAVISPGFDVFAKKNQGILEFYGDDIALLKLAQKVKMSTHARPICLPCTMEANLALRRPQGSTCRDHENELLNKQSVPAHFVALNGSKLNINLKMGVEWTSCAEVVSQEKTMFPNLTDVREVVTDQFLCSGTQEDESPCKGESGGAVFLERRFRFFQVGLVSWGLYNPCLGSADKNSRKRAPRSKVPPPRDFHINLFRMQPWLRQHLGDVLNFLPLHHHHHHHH

human C2 A709S = target: T3, human C2 A709S (human, UniProt P06681 21-752)
T3 sequence: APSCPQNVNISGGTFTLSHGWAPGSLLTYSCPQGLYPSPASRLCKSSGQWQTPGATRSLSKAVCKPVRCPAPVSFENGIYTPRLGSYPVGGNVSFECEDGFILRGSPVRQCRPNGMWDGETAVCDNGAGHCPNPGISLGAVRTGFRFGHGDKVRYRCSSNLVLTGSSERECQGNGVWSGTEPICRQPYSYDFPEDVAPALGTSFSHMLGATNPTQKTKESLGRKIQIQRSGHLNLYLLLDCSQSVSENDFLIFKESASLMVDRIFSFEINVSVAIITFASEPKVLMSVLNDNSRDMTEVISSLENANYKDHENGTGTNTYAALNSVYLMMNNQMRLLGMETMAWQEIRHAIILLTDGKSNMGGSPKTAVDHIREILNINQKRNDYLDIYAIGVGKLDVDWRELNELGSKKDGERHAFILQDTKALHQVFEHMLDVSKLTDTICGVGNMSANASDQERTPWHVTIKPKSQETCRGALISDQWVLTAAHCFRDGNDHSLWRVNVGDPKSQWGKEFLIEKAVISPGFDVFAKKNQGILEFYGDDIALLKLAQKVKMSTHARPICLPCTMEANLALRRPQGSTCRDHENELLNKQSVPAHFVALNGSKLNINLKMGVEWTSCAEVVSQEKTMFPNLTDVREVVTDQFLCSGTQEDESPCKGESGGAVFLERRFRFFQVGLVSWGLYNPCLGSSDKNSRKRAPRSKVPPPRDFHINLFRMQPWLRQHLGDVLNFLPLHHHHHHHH

human C2 N403A = target: T4, human C2 N403A (human, UniProt P06681 21-752)
T4 sequence: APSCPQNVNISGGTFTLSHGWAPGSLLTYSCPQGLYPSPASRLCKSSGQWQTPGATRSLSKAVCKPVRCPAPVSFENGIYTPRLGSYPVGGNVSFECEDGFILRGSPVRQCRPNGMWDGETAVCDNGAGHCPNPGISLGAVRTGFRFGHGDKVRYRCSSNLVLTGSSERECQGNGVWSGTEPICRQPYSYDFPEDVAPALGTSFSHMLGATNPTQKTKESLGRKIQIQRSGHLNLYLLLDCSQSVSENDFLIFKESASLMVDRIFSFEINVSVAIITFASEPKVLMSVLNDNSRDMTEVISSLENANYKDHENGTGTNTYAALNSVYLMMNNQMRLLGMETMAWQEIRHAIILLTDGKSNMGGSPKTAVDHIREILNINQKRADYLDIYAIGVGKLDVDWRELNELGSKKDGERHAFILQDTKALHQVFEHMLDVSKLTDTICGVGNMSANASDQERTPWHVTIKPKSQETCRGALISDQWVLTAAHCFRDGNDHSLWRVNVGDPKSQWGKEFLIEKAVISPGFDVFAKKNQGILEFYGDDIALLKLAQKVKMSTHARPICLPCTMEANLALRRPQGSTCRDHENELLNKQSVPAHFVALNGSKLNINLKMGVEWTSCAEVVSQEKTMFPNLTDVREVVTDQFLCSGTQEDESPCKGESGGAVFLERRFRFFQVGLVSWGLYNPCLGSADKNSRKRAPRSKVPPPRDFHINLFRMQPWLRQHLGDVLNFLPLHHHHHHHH

B1: RF16-226 (antibody, human IgG4 S228P, lambda)
heavy: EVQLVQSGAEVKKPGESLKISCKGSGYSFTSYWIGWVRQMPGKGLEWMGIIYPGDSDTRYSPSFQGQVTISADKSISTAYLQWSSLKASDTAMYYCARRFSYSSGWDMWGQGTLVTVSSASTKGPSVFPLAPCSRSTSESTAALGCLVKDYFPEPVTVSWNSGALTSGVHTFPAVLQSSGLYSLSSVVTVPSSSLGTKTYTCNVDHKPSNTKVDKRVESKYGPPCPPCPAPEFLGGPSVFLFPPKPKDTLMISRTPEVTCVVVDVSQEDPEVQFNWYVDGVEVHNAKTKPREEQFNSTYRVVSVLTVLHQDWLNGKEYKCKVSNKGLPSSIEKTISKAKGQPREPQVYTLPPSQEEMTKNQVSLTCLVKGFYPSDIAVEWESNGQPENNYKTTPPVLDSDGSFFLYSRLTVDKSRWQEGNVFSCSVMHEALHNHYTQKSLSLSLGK
light: SYELTQPPSVSVSPGQTARITCSGDALTSKYVAWYQQKSGLAPLLVIYEDTRRPSGIPAKFSGSSSGSVATLTISGAHGDDEADYYCYSTDASGHQRVFGGGTKLTVLSQPKAAPSVTLFPPSSEELQANKATLVCLISDFYPGAVTVAWKADGSPVKAGVETTKPSKQSNNKYAASSYLSLTPEQWKSHRSYSCQVTHEGSTVEKTVAPTECS
notes: pH-dependent anti-C2 antibody from a phage display library; also called WT
Kd (human C2 D561A): 102 nM | Kd (human C2 W420A): 15.6 nM | Kd (human C2 A709S): 127 nM | Kd (human C2 N403A): 10.5 nM
